Reference: US20240245805A1 (Orna Therapeutics, Inc., priority 2020, published 2024)

B1: Human pegivirus isolate JD2B1I (nucleic acid, listed as Pegivirus sp.)
DNA: TCAGGGTTGGTAGGTCGTAAATCCCGGTCACCTTGGTAGCCACTATAGGTGGGTCTTAAGAGAAGGTTAAGATTCCTCTTGTGCCTGCGGCGAGACCGCGCACGGTCCACAGGTGTTGGCCCTACCGGTGGGAATAAGGGCCCGACGTCAGGCTCGTCGTTAAACCGAGCCCGTCACCCACCTGGGCAAACGACGCCCACGTACGGTCCACGTCGCCCTTCA
B2: Simian pegivirus (nucleic acid, listed as Pegivirus sp.)
DNA: GGGGAATCTCACCCCCCGTCCGGTTCCGGAAGAATCGGAAACCGACACCCTGACCAATCATTCTTGATCATAGAGTGGATGTTAGTGAAAGCCAGACGAAAGCCGGCGGATGGGTGGTGACAGGGTTGGTAGGTCGTAAATCCCGGCCACCCTGGTACCCGGTATAAGTTGGGCGGAAGCTGACTGAAGCTCCGTGCTCTTTTCTGTGCGTTCTTGGTGCACGGTCCACAGGTGACGCCTATACCGGTGTGAATAATAGGCCGACTCGAGCGGAGTCGTTAAACTGAGAACCTCCATACGGATGGCAACTTGGCTTGCGTACGGGGACGCCGCTAAAGTCACAGTGGGTTAAGTCCGGCGGGTTGACAACCCCAGCAAGGCGAGGGGGTCCTATTGTTGGACTCTGCCAGTTCCCGGTGGAGGTAGGCATGGGGTGGCCCAGCTCCGCGGCGCGCTACAGCCGGGGTAGCCCAAAATCCGAAAGGTGAGGGCGGGCCACATGTCCGAAATTTAGTCAAGC
modifications: lipid formulation
B3: Aichivirus Rt386 (nucleic acid, listed as Aichivirus sp.)
DNA: ACTCCATTCAGCTTCTTCGGAACCTGTTCGGAGGAATTAAACGGGCACCCACTTTCCTGTCCTCTCCCCCTTTCTGCAACTCAAGTGTGTGCTCGTAATCCTGACTCCCACGGGTTGACCGCCCCGTTGGTGAACAAACAGCTAGGTCATTCCCTCCCTACCCCTGGGCGCCATTTCAGTGGCGTTCATATCCTCCCCCCAGCCTGACGTGTCACAGGCTGTGCAAAGTCCCCGCGAAAGCTGCTCACGTGGCAATTGTGGGTCCCCCCTTTGTGAAGGAACCGAGTCTTTCTCCCTTAAGGCTAGACCCCTGTGTGAACTCACAGGTGGCAACTAGTGGTTCCACTGCATGCTCCCGACCTCGGCCGCGGAGTGCTGTTCCCCAAGTCGTGACACTGACCTCCACTTATGTGCCTGGCAAGCATATCTGAGAAGATGTTCCGCTGTGGCTGCCAAACCTGGTAACAGGTGCCCCAGTGCGTGTAGTCTTCTTCCGTCTCCGGACGGTAAGTGTGTGGTAAAGATGCGGCGTAAGGTTCAAGTGCCAACGCCCTGGAAGGGATGACCCTTCTACTGCCCTAGGAATGCCGCGCAGGTACCCCAGGTTCGCCTGGGATCTGAGCGCGGGCTAATTGTCTACGGGTAGTTTCATTTCCCTCTCTTTTCACTGGCATC
B4: Porcine Kobuvirus GS2 (nucleic acid, listed as Kobuvirus sp.)
DNA: TTTGAAAAGGGGGTGGGGGGGCCTCGGCCCCCTCACCCTCTTTTCCGGTGGCCATTCGCCCGGGCCACCGTTACTCCACTCCACTCCTTCGGGACTGGTTTGGAGGAACACAACAGGGCTTCCCATCCCTGTTTACCCTTTATTCCATCATCCTTTCCCCAAGTTTACCCTATCCACACCCCACTGACTGACTCCTTTGGATTTTGACCTCAGAATGCCTATTTGACCTCCCACTCGCCTCTCCCTTTTCGGATTGCCGGTGGTGCCTGGCGGAAAAAGCACAAGTGTGTTGCAGGCTACCAAACTCCTACCCGACAAAGGTGCGTGTCCGCGTGCTGAGTAATGGGATAGGAGATGCCTACAACAGGCTCGCCCATGAGTAGAGCATGGACTGCGGTGCATGTGACTTCGGTCACCACGGGCATAGCATTGCTCACCCGTGAATCAAGTCATCGAGATTTCTCTGACCTCTGAAGTGCACTGTGGTTGCGTGGCTGGGAATCCACGCTTGACCATGTACTGCTTGATAGAGTCGCGGCTGGCCGACTCATGGGTTAAAGTCAGTTGACAAGACAC
modifications: lipid formulation
B5: Symapivirus A (nucleic acid)
DNA: TTGGGAAATCCCCAATGCTTCTTTCAACACCGCCTGACTATGCGGTGGCGCTTCGGCTCAAACAACTAGTCACTTCCCCCTCTTAACTACTACCCAAGACTTCTAACTACCCTTACCTACTTATTTGTCTAAATTTCAAACTTTTATTCTCACGCGTCTTATAAACATCTTTTCTATTTGTTATGGTATGTTTTGTGATTTGTGTGGTGTATTTCATTTAATGGGATCTAGTGGACCGTGCCCCGGTTGGGTATCCGCTCCCTTTAAATGTTTGCAAGCACTCTTGACATTATAACCTATCATTTAGTTTACTTGTTTGTATGATCGTATTTCTGAATCGTAACATTTATGCAATTCTTTCTCGCCGAGACTTGTCTAGGAGATAAAGTTCCTGCATATTTAGTGTTACGGTTGTATAATGGAGACTTAGATAGCTTCACACTGAGGACGCTTTTTCGCTATCCTTTTGACCTGATTCAGGCCAGTGTGGAGTTAATGATTGTATGGATGGGCCCTACAATTTGTCTAAGACTTGGTGATAGCCTCGCGGCCGCTCGCCATTTATACAACTGAATAGCGGTTGAAACTCTCT
modifications: Symapivirus A
B6: Pegivirus K (nucleic acid)
DNA: AGAATGGTGTGATCCGTCGCCGCTCCAGCGGAAAGCGGGCGGGATCTAGTGGTTAGGGTTGTTCGCGTAAATCCCACACTAGTGGTACGCTCGTATAACGTGGGAGCAGCCGGTGGGGTCGACCCCCCACCTGGCGGCTGCTGAGCACCGGACGAAGCGCGGGGGGTGAACGCTAACCCGCGGCCCGGGCTGCCAACGTTAGGCACGTCTTGGCTGGAAGACGTTAAACACAGGGCCCCCCCTCAACCCTGATCCGAGGCCAGAGACCAAGGTACGCCGCCCTTTTAAAGGCGTTACTCGTCCAATAGGATCTCTCCGGCGGGTTGTCAAACCTTGCTGGCCCTGGTGATGGTTACGGGAGGGGGTGGGGCGGGGAGTAGAAGCCCCGCCCGGCATGGGGGTACCAAGCTCGGCACGCCCAGCACGCGTGGCGTAGGGGAAAAATCCTTCGGGTGACCCCTGGTACCATAAAGTAATTAACATGAGCATGCCGCTAGGGTGTGCTTTTTCTTCCTTCCTTGGGAAGGCGGTGGCACC
modifications: lipid formulation; Pegivirus K
B7: Pegivirus I (nucleic acid)
DNA: AGAATGGTCTAAGTGGTTGCCACCGTGGTCCGAAGGGGAGGAGGACCTACGCTGCCAGGGTTGGCAGGTCGTAAATCCCGGGTGTAGGAGATCCCTCCTTGTTAGGACTGCTGGTAGCTGGGGGGTCGGTGACCCCCTGGGCAACCGCCAAACCCGGACGACCGGGTGGCGGCTCCATGTTGGCACGGTCCACAGGTGTGAACCCTACCGGTGTGAATAAGGGTTGGTGGTTGCGGTCCACCTTAAACGTAGTATGCATTGGGCTTGGTAAAACACCGCTCGTAGTACGGAACGCCGCCTTTAAAGACACAGTAGGCGTAGCCGGCGGGTTGACAATCCATACGGGGGGTGGGGTGTGGTCATGGATCTGTCCACACCACCTTCATGCGGCCCTCTAAGCAAGCCATACCGGGGGGAGGCGCGCGGCACCGCACTGCCGGGCAAGGGGAAGAACCTTCGGGTGACCCCCCCCCAACCACCGTCCGATCAATGCTAATGTTGCGTTTAGGCGTGACACCGGCACA
modifications: lipid formulation; Pegivirus I

System: HEK293 cells
Format: cell-based, human
Details: circular RNA encoding Gluc with the listed IRES (UTR truncated to 675 nt) transfected into HEK293 cells; supernatant after 24 hours

Going from B1 to B2, the “Expression (luminescence from secreted Gluc protein)” value (“Expression” for short) falls from 6.85E+05 to 8.56E+04.

First: B3
Second: B4
The “Expression” value of the first is higher: 5.71E+07 for the first, 44200000 for the second.

Compared with B5, B6 is lower in “Expression” value: 1.27E+05 for the first, 8.07E+04 for the second.

In the case of B7, the “Expression” value is reported as 8.02E+04.
